The values that follow come from US6319685A (Unigene Laboratories, Inc., priority 1987, dated 2001).

Series [1] addresses T1, alpha-amidating enzyme (Rattus norvegicus, UniProt P14925).
T1 sequence (P14925 36-976): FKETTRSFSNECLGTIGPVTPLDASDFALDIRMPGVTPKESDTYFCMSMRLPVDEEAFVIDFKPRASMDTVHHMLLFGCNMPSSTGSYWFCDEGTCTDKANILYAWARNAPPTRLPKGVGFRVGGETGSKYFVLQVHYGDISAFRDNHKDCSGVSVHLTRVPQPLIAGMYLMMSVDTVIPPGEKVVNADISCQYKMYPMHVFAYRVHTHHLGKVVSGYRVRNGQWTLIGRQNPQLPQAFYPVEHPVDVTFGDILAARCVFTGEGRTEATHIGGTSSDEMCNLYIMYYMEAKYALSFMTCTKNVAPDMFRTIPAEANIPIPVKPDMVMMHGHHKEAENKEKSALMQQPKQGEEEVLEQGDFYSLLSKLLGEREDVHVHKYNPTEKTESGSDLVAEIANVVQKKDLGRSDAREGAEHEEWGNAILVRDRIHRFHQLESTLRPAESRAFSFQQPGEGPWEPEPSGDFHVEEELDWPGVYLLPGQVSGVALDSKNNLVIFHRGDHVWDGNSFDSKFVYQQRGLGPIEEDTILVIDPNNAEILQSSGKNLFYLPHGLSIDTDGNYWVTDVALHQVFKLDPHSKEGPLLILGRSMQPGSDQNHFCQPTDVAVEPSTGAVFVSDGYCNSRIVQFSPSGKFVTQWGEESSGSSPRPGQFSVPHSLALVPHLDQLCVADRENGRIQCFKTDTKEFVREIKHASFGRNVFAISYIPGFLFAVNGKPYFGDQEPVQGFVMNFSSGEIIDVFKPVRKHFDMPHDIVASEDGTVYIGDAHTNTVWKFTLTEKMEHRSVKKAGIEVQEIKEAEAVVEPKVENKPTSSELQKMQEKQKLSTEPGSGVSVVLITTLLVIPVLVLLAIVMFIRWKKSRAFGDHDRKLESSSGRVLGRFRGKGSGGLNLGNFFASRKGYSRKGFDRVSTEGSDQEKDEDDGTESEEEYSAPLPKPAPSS
As to the kind of experiment: co-factor requirement of alpha-amidating enzyme for maximal activity. It is filed as biochemical. To be noted: in vitro, with peptide substrate, oxygen and L-ascorbic acid.

The target in series [2] is T1, alpha-amidating enzyme. Briefly: comparison of assay systems / kinetic analysis of amidation of dansyl-Tyr-Val-Gly, D-Tyr-Val-Gly and 125I-D-Tyr-Val-Gly. The series is classed as biochemical. On the procedure: (§1) I. Monodansyl L-Tyr-Val-Gly
(§2) The concentration of enzyme used in all experiments was left constant except where noted.
(§3) The reaction mixture for the conversion of the monodansyl substrate contained:
(§4) 5 μl of 100 ug/mL bovine pancreatic catalase
(§5) 5 μl containing 2 nmoles of substrate
(§6) The samples were prepared in duplicate and incubated at 37° C. for 10, 20 and 30 minutes time periods. The enzymatic reaction was halted by the addition of 10 ul 500 mM EDTA. Substrate and product were separated by RP HPLC using an Hewlett Packard-1090 liquid chromatography system, and quantitation was achieved using a HP-3392 integrator.
(§7) D-Tyr-Val-Gly and D-Tyr-Val-NH2 were iodinated using iodobeads from Pierce Chemical Company. The radiolabeied substrate and product were used to calibrate a sulfyl-propyl cation-exchange column. ^125 I D-Tyr-Val-Gly was added to 650 uM D-Tyr-Val-Gly and used as the substrate. The reaction mixture for the conversion of monodansyl substrate contained:
(§8) Samples were incubated for 10, 20, 30 minutes at 37° C. The reaction was stopped by addition of 500 mM EDTA. […] The conversion of radiolabeled substrate to product was linear with respect to time.
The reaction conditions used for the amidation of D-Tyr-Val-Gly are identical to those described for the dansyl and iodinated substrates. Substrate concentration in the reaction mixture was 650 uM. Separation of substrate and product is achieved by gradient elution on RP-HPLC using a HP-1090 liquid chromatography system. The column effluents were monitored at 280 nm. The level of sensitivity for this assay is much lower than that for either dansyl or iodinated substrates.
Furthermore, a somewhat more rigorous kinetic analysis has also been employed to compare the dansyl-Tyr-Val-Gly (Applicants') assay to the D-Tyr-Val-Gly (prior art) assay.

Substrate in series [3]: CC(C)[C@H](NC(=O)[C@H](N)Cc1ccc(O)cc1)C(=O)NCC(=O)O
The series is described as above. To be noted: 37.0 °C. It is filed as biochemical, rat. How it is done: as §1, §2, §3, §4, §5, §6, §7, §8
The reaction conditions used for the amidation of D-Tyr-Val-Gly are identical to those described for the dansyl and iodinated substrates. Substrate concentration in the reaction mixture was 650 uM. […] The column effluents were monitored at 280 nm. […]

A short description of series [4]: specific alpha-amidating activity, conversion of Dansyl-D-Tyr-Val-Gly to Dansyl-D-Tyr-Val-CONH2. The series is classed as biochemical. How it is done:
These and other objects will become apparent from a thorough reading of the present disclosure. […] All specific activity units set forth herein are based upon the conversion of Dansyl-D-Try-Val-Gly-COOH to Dansyl-D-Tyr-Val-CONH2. One mU is defined as the amount of activity needed to convert one nanomole (nmole) of Dansyl-D-Tyr-Val-Gly-COOH to one nmole of Dansyl-D-Tyr-Val-CONH2 per minute at 37° C. and pH 7.0 in the presence of ascorbate ions at a concentration of 3 mM (based on total reaction mixture including enzyme, substrate, co-factors, etc.), molecular oxygen in a molar excess over substrate and a concentration of cupric ions effective to maximize activity (usually about 2 μM depending on the state of purity of the enzyme).
Each purification step can be monitored for both protein content and the level of alpha-amidation activity. This information is used to calculate the specific activity of the enzyme which serves as an indicator of the relative purity of the enzyme.
Sephacryl S-300 (Pharmacia) was equilibrated in 50 mM Tris HCl pH 7.0 and poured into a K 50/100 column (Pharmacia) according to the manufacturer's instructions. The bed volume of the column was approximately 1.3 liters. The Sample was loaded onto the column in a volume representing approximately 3 percent of the bed volume of the column. Proteins were eluted from the column in 50 mM Tris HCl pH 7.0 at a flow rate of approximately 2 ml per minute.
as §3
The samples were prepared in duplicate and incubated at 37° C. for 10, 20 and 30 minutes time periods. The enzymatic reaction was halted by the addition of 10 ul 500 mM EDTA.

Series [5] can be described thus: pH optimum of alpha-amidating enzyme. It is filed as biochemical. The following applies: CA-77 cell tissue culture media enzyme. On the procedure: 2. The optimum pH for the activity of the enzyme was determined to be pH 5.0-5.5 using N dansyl Tyr-Val-Gly as the substrate (FIG. XVI). However, due to the enhanced stability of the enzyme at neutral pH, it may be beneficial to carry out the amidation reaction at such pH.

Residues, ends and D or L forms follow the SMILES beside them.

For catalase, the “effect of addition on enzymatic activity” value in the series with alpha-amidating enzyme [1] is listed as “substantially increased”.

With “^125 I-D-Tyr-Val-Gly [125I-D-Tyr-Val-Gly]”, the “fractional conversion relative to dansyl-Tyr-Val-Gly” value at alpha-amidating enzyme [2] (each time point (10, 20, 30 minutes), 37° C.) is reported as “approximately 1.55 times”.

In the case of `O=S(=O)([O-])[O-].[Cu+2]` [copper sulfate], the “effect of addition on enzymatic activity” value at alpha-amidating enzyme [1] is listed as “substantially increased”.

Regarding `CC(C)[C@H](NC(=O)[C@H](N)Cc1ccc(O)cc1)C(=O)NCC(=O)O` [D-Tyr-Val-Gly] (HELM PEPTIDE1{[dY].V.G}$$$$V2.0), the “maximal velocity relative to dansyl-Tyr-Val-Gly” value at alpha-amidating enzyme [2] (comparison of Vmax) is on record as “approximately 1.48 times”.

B1: alpha-amidating enzyme (Rattus norvegicus) (protein)
chain: T1 sequence (P14925 36-976)
Usually Km stands for the concentration of substrate that gives half-maximal velocity. With B1, in series [3], the Km is 37 µM and the Vmax is recorded as 31 pmol product/min/μl.

B2: peak eluting at 190 mM NaCl: enzyme activity peak from Mono Q HR 5/5 at pH 8.0 eluting at 190 mM NaCl (protein, UniProt P14925 36-976, looked up)
Peptidylglycine …: T1 sequence (P14925 36-976)
modifications: Mono Q fraction
As for B2, the specific alpha-amidating activity result in series [4] (after Mono Q chromatography at pH 8.0, rat MTC tumor) is listed as “at least 80 mU/mg protein”.

B3: Peak IV enzyme (CA-77): higher molecular weight form from CA-77 medium, corresponds to peak III derived from MTC tumors (protein, UniProt P14925 36-976, looked up)
Peptidylglycine …: T1 sequence (P14925 36-976)
modifications: higher molecular weight form
Consider B3, for which the specific activity entry in series [4] (CA-77 media, purified enzyme, pH 7.0) is “approximately 1500 mU/mg protein”. Also, in series [5], the pH optimum is 5.0-5.5.
